Test results: paper PMC10786891, “Massively parallel profiling of RNA-targeting CRISPR-Cas13d”
Numbering of substitutions follows the chain as printed. Numbers in names are those of the source.

T1: EsCas13d, nuclease-dead (Eubacterium siraeum, UniProt B0MS50, R295A;H300A;R849A;H854A)
T1 sequence: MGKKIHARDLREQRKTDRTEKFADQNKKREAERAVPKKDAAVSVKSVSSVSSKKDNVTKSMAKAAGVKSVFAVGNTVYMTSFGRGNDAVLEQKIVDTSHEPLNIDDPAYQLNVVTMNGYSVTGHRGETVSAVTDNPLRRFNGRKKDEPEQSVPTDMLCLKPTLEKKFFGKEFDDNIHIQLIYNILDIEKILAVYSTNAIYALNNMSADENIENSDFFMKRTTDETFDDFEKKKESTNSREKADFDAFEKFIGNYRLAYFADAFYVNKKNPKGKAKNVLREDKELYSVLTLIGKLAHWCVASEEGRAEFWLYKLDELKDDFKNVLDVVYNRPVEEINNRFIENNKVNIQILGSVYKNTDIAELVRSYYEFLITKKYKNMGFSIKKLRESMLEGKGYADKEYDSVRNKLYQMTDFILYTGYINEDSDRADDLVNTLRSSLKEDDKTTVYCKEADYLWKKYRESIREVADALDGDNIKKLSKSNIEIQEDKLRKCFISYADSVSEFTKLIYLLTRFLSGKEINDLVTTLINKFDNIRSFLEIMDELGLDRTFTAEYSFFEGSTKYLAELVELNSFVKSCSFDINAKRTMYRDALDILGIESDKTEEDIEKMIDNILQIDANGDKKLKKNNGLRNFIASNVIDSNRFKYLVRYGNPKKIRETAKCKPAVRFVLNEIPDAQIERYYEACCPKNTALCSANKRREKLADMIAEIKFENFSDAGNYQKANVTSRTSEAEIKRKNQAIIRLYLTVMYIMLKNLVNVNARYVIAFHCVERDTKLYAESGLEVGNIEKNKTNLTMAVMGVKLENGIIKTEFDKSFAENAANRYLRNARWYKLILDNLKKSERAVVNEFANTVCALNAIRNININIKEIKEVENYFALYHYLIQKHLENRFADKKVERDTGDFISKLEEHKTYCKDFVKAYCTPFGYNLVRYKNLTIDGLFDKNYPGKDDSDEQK

B1: target 1 MT 5'PFS CAA 3'PFS CUG (mixed)
RNA 1: CACCCGUGCAAAAAUGCAGGGGUCUAAAACUGAGCGGAUAACCUCUCUAUGG
RNA 2: GGGAAUGGAUCCACAUCUACGAAUUCCAACCAUAGAGAGGUUAUCCGCUCACUGAGAUCGGAAGAGCACACGU
B2: target 1 MT 5'PFS UUA 3'PFS AUA (mixed)
RNA 1: B1 RNA 1
RNA 2: B1 RNA 2 with C27U, A28U, C52A, G54A
B3: target 1 MT 5'PFS CCG 3'PFS CAC (mixed)
RNA 1: B1 RNA 1
RNA 2: B1 RNA 2 with A28C, A29G, U53A, G54C
B4: target 1 MT 5'PFS GGA 3'PFS GAG (mixed)
RNA 1: B1 RNA 1
RNA 2: B1 RNA 2 with C27G, A28G, C52G, U53A
B5: target 1 MT 5'PFS GUU 3'PFS UGA (mixed)
RNA 1: B1 RNA 1
RNA 2: B1 RNA 2 with C27G, A28U, A29U, C52U, U53G, G54A
B6: target 1 MT 5'PFS GCA 3'PFS UCG (mixed)
RNA 1: B1 RNA 1
RNA 2: B1 RNA 2 with C27G, A28C, C52U, U53C
B7: target 1 MT 5'PFS UCA 3'PFS CCG (mixed)
RNA 1: B1 RNA 1
RNA 2: B1 RNA 2 with C27U, A28C, U53C
B8: target 1 MT 5'PFS AGG 3'PFS CAG (mixed)
RNA 1: B1 RNA 1
RNA 2: B1 RNA 2 with C27A, A28G, A29G, U53A
B9: target 1 MT 5'PFS CCU 3'PFS CGC (mixed)
RNA 1: B1 RNA 1
RNA 2: B1 RNA 2 with A28C, A29U, U53G, G54C
B10: target 1 MT 5'PFS UUA 3'PFS CGC (mixed)
RNA 1: B1 RNA 1
RNA 2: B1 RNA 2 with C27U, A28U, U53G, G54C
B11: target 1 del4,del8 (mixed)
RNA 1: B1 RNA 1
RNA 2: GGGAAUGGAUCCACAUCUACGAAUUCGUACCAUAGAGAGGUUACCGUCACCGAGAUCGGAAGAGCACACGU
B12: target 1 MT 5'PFS CCU 3'PFS AGA (mixed)
RNA 1: B1 RNA 1
RNA 2: B1 RNA 2 with A28C, A29U, C52A, U53G, G54A
B13: target 1 MT 5'PFS UCA 3'PFS CCC (mixed)
RNA 1: B1 RNA 1
RNA 2: B1 RNA 2 with C27U, A28C, U53C, G54C
B14: target 1 MT 5'PFS UUA 3'PFS AUU (mixed)
RNA 1: B1 RNA 1
RNA 2: B1 RNA 2 with C27U, A28U, C52A, G54U
B15: target 1 MT 5'PFS AAA 3'PFS ACC (mixed)
RNA 1: B1 RNA 1
RNA 2: B1 RNA 2 with C27A, C52A, U53C, G54C
B16: target 1 MT 5'PFS AAC 3'PFS CCG (mixed)
RNA 1: B1 RNA 1
RNA 2: B1 RNA 2 with C27A, A29C, U53C
B17: target 1 MT 5'PFS GUU 3'PFS UGC (mixed)
RNA 1: B1 RNA 1
RNA 2: B1 RNA 2 with C27G, A28U, A29U, C52U, U53G, G54C
B18: target 1 insG 3' of 18,insG 3' of 10 (mixed)
RNA 1: B1 RNA 1
RNA 2: GGGAAUGGAUCCACAUCUACGAAUUCGUACCAUAGGAGAGGUUGAUCCGCUCACCGAGAUCGGAAGAGCACACGU
B19: target 1 MT 5'PFS AAA 3'PFS ACU (mixed)
RNA 1: B1 RNA 1
RNA 2: B1 RNA 2 with C27A, C52A, U53C, G54U
B20: target 1 MT 5'PFS GAG 3'PFS CGG (mixed)
RNA 1: B1 RNA 1
RNA 2: B1 RNA 2 with C27G, A29G, U53G
B21: target 1 MT 5'PFS AAG 3'PFS AAG (mixed)
RNA 1: B1 RNA 1
RNA 2: B1 RNA 2 with C27A, A29G, C52A, U53A
B22: target 1 MT 5'PFS AAA 3'PFS ACA (mixed)
RNA 1: B1 RNA 1
RNA 2: B1 RNA 2 with C27A, C52A, U53C, G54A
B23: target 1 MT 5'PFS UCG 3'PFS AUC (mixed)
RNA 1: B1 RNA 1
RNA 2: B1 RNA 2 with C27U, A28C, A29G, C52A, G54C
B24: target 1 MT 5'PFS GCA 3'PFS UCU (mixed)
RNA 1: B1 RNA 1
RNA 2: B1 RNA 2 with C27G, A28C, C52U, U53C, G54U
B25: target 1 MT 5'PFS CCG 3'PFS ACA (mixed)
RNA 1: B1 RNA 1
RNA 2: B1 RNA 2 with A28C, A29G, C52A, U53C, G54A
B26: target 1 C6U,U19C (mixed)
RNA 1: B1 RNA 1
RNA 2: B1 RNA 2 with C27G, A28U, U33C, C46U, U53C
B27: target 1 MT 5'PFS AAA 3'PFS ACG (mixed)
RNA 1: B1 RNA 1
RNA 2: B1 RNA 2 with C27A, C52A, U53C
B28: target 1 MT 5'PFS CAA 3'PFS CUC (mixed)
RNA 1: B1 RNA 1
RNA 2: B1 RNA 2 with G54C
B29: target 1 MT 5'PFS GAG 3'PFS CGA (mixed)
RNA 1: B1 RNA 1
RNA 2: B1 RNA 2 with C27G, A29G, U53G, G54A
B30: target 1 insA 3' of 10,insG 3' of 3 (mixed)
RNA 1: B1 RNA 1
RNA 2: GGGAAUGGAUCCACAUCUACGAAUUCGUACCAUAGAGAGGUUAAUCCGCUGCACCGAGAUCGGAAGAGCACACGU
B31: target 1 MT 5'PFS UUA 3'PFS AUG (mixed)
RNA 1: B1 RNA 1
RNA 2: B1 RNA 2 with C27U, A28U, C52A
B32: target 1 MT 5'PFS GCA 3'PFS UCA (mixed)
RNA 1: B1 RNA 1
RNA 2: B1 RNA 2 with C27G, A28C, C52U, U53C, G54A
B33: target 1 MT 5'PFS UUA 3'PFS AUC (mixed)
RNA 1: B1 RNA 1
RNA 2: B1 RNA 2 with C27U, A28U, C52A, G54C
B34: target 1 MT 5'PFS GUU 3'PFS UGU (mixed)
RNA 1: B1 RNA 1
RNA 2: B1 RNA 2 with C27G, A28U, A29U, C52U, U53G, G54U
B35: target 1 MT 5'PFS ACC 3'PFS UAC (mixed)
RNA 1: B1 RNA 1
RNA 2: B1 RNA 2 with C27A, A28C, A29C, C52U, U53A, G54C
B36: target 1 MT 5'PFS UCG 3'PFS AUU (mixed)
RNA 1: B1 RNA 1
RNA 2: B1 RNA 2 with C27U, A28C, A29G, C52A, G54U
B37: target 1 MT 5'PFS AGG 3'PFS ACU (mixed)
RNA 1: B1 RNA 1
RNA 2: B1 RNA 2 with C27A, A28G, A29G, C52A, U53C, G54U
B38: target 1 insU 3' of 13,insU 3' of 13 (mixed)
RNA 1: B1 RNA 1
RNA 2: B18 RNA 2 with G36A, A37G, G38A, A39G, G40U, G41U, U42G, G44U

Target: T1, EsCas13d, nuclease-dead
Assay: crRNA (strand 1, pre-loaded); Mg2+; 40 mM Tris-HCl pH 7.5, 150 mM NaCl, 6 mM MgCl2, 1 mM DTT, 0.1% Tween-20, 0.2 mg/ml BSA; 25 C; 10 min per concentration, then washed
Conditions: tags: His6-TwinStrep-SUMO cleaved; N-terminal SNAP kept (SNAP-Surface 488); label: 3' end held by stalled T7 RNA polymerase

Row | Binder | Kd
1 | B1 | 14.5 ± 5 nM
2 | B2 | 77 ± 25 nM
3 | B3 | 6.45 ± 2.75 nM
4 | B4 | 19 ± 6 nM
5 | B5 | 16.8 ± 2.5 nM
6 | B6 | 13.7 ± 2.4 nM
7 | B7 | ~25 nM
8 | B8 | ~41 nM
9 | B9 | ~15.5 nM
10 | B10 | 18 ± 7 nM
11 | B11 | 12.1 ± 1 nM
12 | B12 | 31.5 ± 14.5 nM
13 | B13 | ~69 nM
14 | B14 | 13.2 ± 2.1 nM
15 | B15 | 42 ± 13.5 nM
16 | B16 | 19.5 ± 4.45 nM
17 | B17 | 15.5 ± 2.7 nM
18 | B18 | 61 ± 15 nM
19 | B19 | 12.1 ± 2.6 nM

Row | Binder | Kd
20 | B20 | ~100 nM
21 | B21 | 20.5 ± 4.5 nM
22 | B22 | 29.5 ± 14 nM
23 | B23 | 42 ± 13 nM
24 | B24 | 10.6 ± 2.55 nM
25 | B25 | 38.5 ± 13 nM
26 | B26 | 29.7 ± 2 nM
27 | B27 | 18.6 ± 4.45 nM
28 | B28 | ~25 nM
29 | B29 | ~49 nM
30 | B30 | 7.18 ± 0.25 nM
31 | B31 | 64.5 ± 23 nM
32 | B32 | 11.8 ± 2.9 nM
33 | B33 | 20.5 ± 5 nM
34 | B34 | 34.5 ± 6.5 nM
35 | B35 | 31 ± 14.5 nM
36 | B36 | 32.5 ± 10.5 nM
37 | B37 | 42 ± 12 nM
38 | B38 | 6.5 ± 0.6 nM
